# Results as given in article PMC6906691.
# Tests used:
# Assay in all cases: chemical modification
# Details in all cases: 37 °C, added salt not given, universal pH buffer: 5 mM CHES, 5 mM HEPES, 5 mM MES, degassed and charged with nitrogen
# [1] = target: Cys3 (position 3, ---YGCAAADA)
# [2] = target: Cys3 (position 3, ---GGCPYADA)
# [3] = target: Cys3 (position 3, ---YGCPAADA)
# [4] = target: Cys3 (position 3, ---KKCPYSDA)
# [5] = target: Cys3 (position 3, ---RRCPYSDA)
# [6] = target: Cys3 (position 3, ---YGCAAAAA)
# [7] = target: Cys3 (position 3, ---KKCPYSAD)
# [8] = target: Cys3 (position 3, ---KKCPYSAA)
# [9] = free peptide, 2-4Zn(II) absent. Peptide-a of this series, which lacks Cys, is described as a random coil without zinc complex.
# [10] = peptide (4 µM) in binding complex with the tetranuclear zinc complex 2-4Zn(II) (14 µM), alpha-helical conformation induced by the complex
protein,measurement,setting,value
YGCAAADAAADAAADAAAD [peptide-d (Asp-rich alpha-helical tag peptide) (synthetic construct)],pKa,[1]; [9],8.89
same,pKa,[1]; [10],7.94
GGCPYADAAADAAADAAAD [peptide-e (Cys-Pro-Tyr-Ala glutaredoxin-mimicking tag peptide) (synthetic construct)],pKa,[2]; [9],8.48
same,pKa,[2]; [10],7.46
YGCPAADAAADAAADAAAD [peptide-f (synthetic construct)],pKa,[3]; [9],8.93
same,pKa,[3]; [10],7.80
KKCPYSDAAADAAADAAAD [peptide-g (synthetic construct)],pKa,[4]; [9],8.04
same,pKa,[4]; [10],7.13
RRCPYSDAAADAAADAAAD [peptide-h (synthetic construct)],pKa,[5]; [9],8.02
same,pKa,[5]; [10],7.18
YGCAAAAAADDDDGDDDD [peptide-i (D4-tag peptide) (synthetic construct)],pKa,[6]; [9],8.96
same,pKa,[6]; [10],8.22
KKCPYSADAAADAAADAAAD [peptide-j (synthetic construct)],pKa,[7]; [9],7.94
same,pKa,[7]; [10],7.08
KKCPYSAADAAADAAADAAAD [peptide-k (helixD2-tag peptide) (synthetic construct)],pKa,[8]; [9],7.95
same,pKa,[8]; [10],7.14
